{"source": "paper doi:10.1101/2025.11.27.690911", "binders": {"B1": {"name": "SuperCan (structured_DNA)", "DNA": "GAAGAATGAACAGAGTAGGTCAAAGTCAGTGGGGAGTACACCACTGACGACGAGTTGAATGAACGTAGGAAGTAAGTATACGTTCATTCTTAGCTTCCAAAGCAGAGTGCGAGGCTTTGGAGCGTAACTTGCGTTATCGTCGCAAGAAAGCAAACGGTGATGAGACAATC"}}, "target": "thrombin (UniProt P00734;P00734 328-363;364-622)", "test": "SPR", "data": [{"binder": "B1", "values": [{"measurement": "binding result", "result": "binds"}]}]}
